This experiment deals with T1, Mammaglobin polypeptide from breast cancer tissue extract (human, UniProt Q13296 19-93, glycoprotein (Asn 53 and/or Asn 68 may carry sugars)).
T1 construct: native protein in tissue extract, 17-23 kD reduced
The experiment can be described thus: legend of FIG. 20A-D; MonoQ fractions, dot blots and Western blots. On the procedure:
C. Ion Exchange Chromatography The breast cancer tissue extract derived from the patient with invasive, poorly differentiated adenocarcinoma (breast) (FIG. 11, lanes. 4 and 10) was purified using anion exchange chromatography. Specifically, the 800 uL extract was applied to a Mono Q 5/5 column (Pharmacia) equilibrated with 20 mM piperazine, pH 6.0. The proteins were eluted using a linear gradient of sodium chloride. The flow rate was 1 mL/min; the gradient was 20 mM sodium chloride per milliliter of buffer; and the elution time was 50 minutes; creating an elution profile that went from 0 to 1000 mM sodium chloride. The sample loading time was 30 minutes prior to application of the elution gradient. Each 1 mL fraction was sampled. One hundred microliters of each fraction was boiled in the presence of 0.1% beta-mercaptoethanol and was then applied to a well of a dot blot apparatus and the volume was suctioned through a piece of nitrocellulose. The nitrocellulose filter was then developed with the same procedure to develop Western blots, as described hereinabove in Example 7B, using polyclonal antisera recognizing either BU101 or Mam. […]
Protein extracted from breast tissue was fractionated using a MonoQ column at pH6 and eluted using increasing salt gradient. […] The MamBu complex is detected using both antibodies under non-reducing conditions (FIGS. 20C & D). […]

T1 sequence (Q13296 19-93 limits assumed): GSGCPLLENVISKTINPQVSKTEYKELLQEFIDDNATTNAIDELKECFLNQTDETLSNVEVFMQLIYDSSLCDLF

B1: BU101 polypeptide from breast cancer tissue extract (other)
chain: EFCPALVSELLDFFFISEPLFKLSLAKFDAPPEAVAAKLGVKRCTDQMSLQKRSLIAEVLVKILKKCSV
notes: native protein in tissue extract, about 7 kD reduced
In the case of B1, the binding result is “binds”.

For the origin of these results see patent publication US20040265932A1 (AbbVie / Abbott, published 2004).
